Where only a bound is given, the exact number is not on record here.

EC50 data for two molecules are collected here from patent US8349320 (dated 2013).

Experiment [1] addresses T1, mouse BTLA expressed on cells (mouse, UniProt Q7TSA3 30-306).
T1 chain: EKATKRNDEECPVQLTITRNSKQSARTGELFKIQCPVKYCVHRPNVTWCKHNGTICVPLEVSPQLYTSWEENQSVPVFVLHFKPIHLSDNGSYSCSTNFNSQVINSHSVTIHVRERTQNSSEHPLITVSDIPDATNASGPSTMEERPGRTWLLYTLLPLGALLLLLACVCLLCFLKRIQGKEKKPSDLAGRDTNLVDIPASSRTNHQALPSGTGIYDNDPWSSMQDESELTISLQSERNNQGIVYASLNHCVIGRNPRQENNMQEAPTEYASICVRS
The experiment can be described thus: FACS binding to transfected 293T cells; top panel.

The target of experiment [2] is T2, human BTLA expressed on cells (human, UniProt Q7Z6A9 31-289). As to the kind of experiment: FACS binding to transfected 293T cells; top panel.
T2 sequence (Q7Z6A9 31-289): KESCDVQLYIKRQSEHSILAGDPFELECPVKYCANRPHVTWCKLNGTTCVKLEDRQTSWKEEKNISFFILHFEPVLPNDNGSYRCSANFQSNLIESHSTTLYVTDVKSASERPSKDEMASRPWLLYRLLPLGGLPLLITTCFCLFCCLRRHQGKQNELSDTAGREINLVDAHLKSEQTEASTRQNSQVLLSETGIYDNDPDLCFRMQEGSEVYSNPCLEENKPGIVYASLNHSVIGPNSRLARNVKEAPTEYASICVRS
The target of experiment [3] is T2, human BTLA expressed on cells. As to the kind of experiment: FACS binding to transfected 293T cells; bottom panel; axis printed mHVEM:Fc, presumably hHVEM:Fc.

B1: mouse HVEM-Fc (Fc fusion)
chain: QPSCRQEEFLVGDECCPMCNPGYHVKQVCSEHTGTVCAPCPPQTYTAHANGLSKCLPCGVCDPDMGLLTWQECSSWKDTVCRCIPGYFCENQDGSHCSTCLQHTTCPPGQRVEKRGTHDQDTVCADCLTGTFSLGGTQEECLPWTNCSAFQQEVRRGTNSTDTTCSSQ
As to B1, the EC50 in experiment [1] is 0.8 µg/mL; in experiment [2] it was 0.5 µg/mL.

B2: human HVEM-Fc (Fc fusion)
chain: LPSCKEDEYPVGSECCPKCSPGYRVKEACGELTGTVCEPCPPGTYIAHLNGLSKCLQCQMCDPAMGLRASRNCSRTENAVCGCSPGHFCIVQDGDHCAACRAYATSSPGQRVQKGGTESQDTLCQNCPPGTFSPNGTLEECQHQTKCSWLVTKAGAGTSSSHWV
modifications: in the FIG. 3H assay biotinylated with NHS-PEO4-Biotin, 2 biotin molecules per HVEM-Fc (sites not given)
In turn, B2 displayed an EC50 in experiment [3] greater than 25 µg/mL.
